Assay results: publication PMC6232118

Columns and labels:
Assay in all cases: EMSA
Settings in all cases: pH 7.9, temperature not given, scale: slope of unbound DNA vs protein
[1] = test system: FlhD (E. coli);FlhC (E. coli) (Escherichia coli;Escherichia coli)
[2] = test system: FlhD (E. coli);FlhC (S. enterica) (Escherichia coli;Salmonella enterica sv Typhimurium)
[3] = test system: FlhD (S. enterica);FlhC (S. enterica) (Salmonella enterica sv Typhimurium;Salmonella enterica sv Typhimurium)
[4] = test system: FlhD (S. enterica);FlhC (E. coli) (Salmonella enterica sv Typhimurium;Escherichia coli)

With PflgAB promoter PCR product the binding signal [1] was -1570, the binding signal [2] was -784 and the binding signal [3] was -906. For the same substance, the binding signal [4] was -1120.
